Results reported in article PMC12102759 (2025).

B1: PEX5 peptide 240-255 (Peroxisomal targeting signal 1 receptor), 16-mer library wild type / PEX14 Pex14 (PEX14 PEX14, residues 16-84) (parent complex)
chain 1: AEQWAAEFIQQQGTSD
chain 2: TPGSENVLPREPLIATAVKFLQNSRVRQSPLATRRAFLKKKGLTDEEIDMAFQQSGTAADEPSSLGPAT
B2: PRDM14 peptide 196-211 (PR domain zinc finger protein 14), 16-mer library wild type / NSP3 SUD-M (ORF1ab Nsp3c SUD-M, residues 1356-1493) (parent complex)
chain 1: QFTEEDLHFVLYGVTP
chain 2: LPSIISNEKQEILGTVSWNLREMLAHAEETRKLMPVCVETKAIVSTIQRKYKGIKIQEGVVDYGARFYFYTSKTTVASLINTLNDLNETLVTMPLGYVTHGLNLEEAARYMRSLKVPATVSVSSPDAVTAYNGYLTSS

Variants of: B1
Experiment: proteomic peptide phage display deep mutational scan (ProP-PD DMS): M13 P8 16-mer library selected against immobilised GST-tagged bait for four days (rounds), NGS of the eluted pools per day and pseudo-replica; bait immobilised on MaxiSorp plates (10 µg), library pre-cleared on GST, 2 h binding at 4 °C, five washes; one round per day, days 1-4; value from days 2 and 3

Variant	screen value
chain 1 AEQWAAEFIQQQGVSD [chain 1 T14V]	0.000546 average fractional NGS count over selection days 2 and 3 (reads of this peptide / all reads for the bait, averaged over …
chain 1 AEQWAAEFIQQQGGSD [chain 1 T14G]	0.000345 average fractional NGS count over selection days 2 and 3 (reads of this peptide / all reads for the bait, averaged over …
chain 1 AEQWAAEFIQQQETSD [chain 1 G13E]	0.000748 average fractional NGS count over selection days 2 and 3 (reads of this peptide / all reads for the bait, averaged over …
chain 1 AEQWAAEFIQQQHTSD [chain 1 G13H]	0.00793 average fractional NGS count over selection days 2 and 3 (reads of this peptide / all reads for the bait, averaged over …
chain 1 AEQWAAEFIQQFGTSD [chain 1 Q12F]	0.00145 average fractional NGS count over selection days 2 and 3 (reads of this peptide / all reads for the bait, averaged over …
chain 1 AEQWAAEFIQQWGTSD [chain 1 Q12W]	0.000968 average fractional NGS count over selection days 2 and 3 (reads of this peptide / all reads for the bait, averaged over …
chain 1 AEQWAAEFIQQGGTSD [chain 1 Q12G]	0.00219 average fractional NGS count over selection days 2 and 3 (reads of this peptide / all reads for the bait, averaged over …
chain 1 AEQWANEFIQQQGTSD [chain 1 A6N]	0.00234 average fractional NGS count over selection days 2 and 3 (reads of this peptide / all reads for the bait, averaged over …
chain 1 AEQWAEEFIQQQGTSD [chain 1 A6E]	0.000449 average fractional NGS count over selection days 2 and 3 (reads of this peptide / all reads for the bait, averaged over …
chain 1 AEQWAFEFIQQQGTSD [chain 1 A6F]	0.00131 average fractional NGS count over selection days 2 and 3 (reads of this peptide / all reads for the bait, averaged over …
chain 1 AEQWAWEFIQQQGTSD [chain 1 A6W]	0.00422 average fractional NGS count over selection days 2 and 3 (reads of this peptide / all reads for the bait, averaged over …
chain 1 AEQWATEFIQQQGTSD [chain 1 A6T]	0.0091 average fractional NGS count over selection days 2 and 3 (reads of this peptide / all reads for the bait, averaged over …
chain 1 AEQWAAEFEQQQGTSD [chain 1 I9E]	0.00149 average fractional NGS count over selection days 2 and 3 (reads of this peptide / all reads for the bait, averaged over …
chain 1 AEQWAAEFAQQQGTSD [chain 1 I9A]	0.00188 average fractional NGS count over selection days 2 and 3 (reads of this peptide / all reads for the bait, averaged over …
chain 1 AEQWAAEFQQQQGTSD [chain 1 I9Q]	0.00295 average fractional NGS count over selection days 2 and 3 (reads of this peptide / all reads for the bait, averaged over …
chain 1 AEQWAAEFNQQQGTSD [chain 1 I9N]	0.00185 average fractional NGS count over selection days 2 and 3 (reads of this peptide / all reads for the bait, averaged over …
chain 1 AEQWAAEFVQQQGTSD [chain 1 I9V]	0.00275 average fractional NGS count over selection days 2 and 3 (reads of this peptide / all reads for the bait, averaged over …
chain 1 DEQWAAEFIQQQGTSD [chain 1 A1D]	0.00705 average fractional NGS count over selection days 2 and 3 (reads of this peptide / all reads for the bait, averaged over …
chain 1 MEQWAAEFIQQQGTSD [chain 1 A1M]	0.000375 average fractional NGS count over selection days 2 and 3 (reads of this peptide / all reads for the bait, averaged over …
chain 1 NEQWAAEFIQQQGTSD [chain 1 A1N]	0.00349 average fractional NGS count over selection days 2 and 3 (reads of this peptide / all reads for the bait, averaged over …
chain 1 YEQWAAEFIQQQGTSD [chain 1 A1Y]	0.017 average fractional NGS count over selection days 2 and 3 (reads of this peptide / all reads for the bait, averaged over …
chain 1 WEQWAAEFIQQQGTSD [chain 1 A1W]	0.00504 average fractional NGS count over selection days 2 and 3 (reads of this peptide / all reads for the bait, averaged over …
chain 1 KEQWAAEFIQQQGTSD [chain 1 A1K]	0.000873 average fractional NGS count over selection days 2 and 3 (reads of this peptide / all reads for the bait, averaged over …
chain 1 EEQWAAEFIQQQGTSD [chain 1 A1E]	0.000945 average fractional NGS count over selection days 2 and 3 (reads of this peptide / all reads for the bait, averaged over …
chain 1 AEQWAADFIQQQGTSD [chain 1 E7D]	0.00269 average fractional NGS count over selection days 2 and 3 (reads of this peptide / all reads for the bait, averaged over …

Variant	screen value
chain 1 AEQWAAVFIQQQGTSD [chain 1 E7V]	0.000633 average fractional NGS count over selection days 2 and 3 (reads of this peptide / all reads for the bait, averaged over …
chain 1 ARQWAAEFIQQQGTSD [chain 1 E2R]	0.00281 average fractional NGS count over selection days 2 and 3 (reads of this peptide / all reads for the bait, averaged over …
chain 1 ANQWAAEFIQQQGTSD [chain 1 E2N]	0.0028 average fractional NGS count over selection days 2 and 3 (reads of this peptide / all reads for the bait, averaged over …
chain 1 AGQWAAEFIQQQGTSD [chain 1 E2G]	0.000866 average fractional NGS count over selection days 2 and 3 (reads of this peptide / all reads for the bait, averaged over …
chain 1 APQWAAEFIQQQGTSD [chain 1 E2P]	0.000798 average fractional NGS count over selection days 2 and 3 (reads of this peptide / all reads for the bait, averaged over …
chain 1 AEQWMAEFIQQQGTSD [chain 1 A5M]	0.00306 average fractional NGS count over selection days 2 and 3 (reads of this peptide / all reads for the bait, averaged over …
chain 1 AEQWDAEFIQQQGTSD [chain 1 A5D]	0.00199 average fractional NGS count over selection days 2 and 3 (reads of this peptide / all reads for the bait, averaged over …
chain 1 AEQWYAEFIQQQGTSD [chain 1 A5Y]	0.00174 average fractional NGS count over selection days 2 and 3 (reads of this peptide / all reads for the bait, averaged over …
chain 1 AEQWKAEFIQQQGTSD [chain 1 A5K]	0.00108 average fractional NGS count over selection days 2 and 3 (reads of this peptide / all reads for the bait, averaged over …
chain 1 AEQWQAEFIQQQGTSD [chain 1 A5Q]	0.00841 average fractional NGS count over selection days 2 and 3 (reads of this peptide / all reads for the bait, averaged over …
chain 1 AEQWSAEFIQQQGTSD [chain 1 A5S]	0.00197 average fractional NGS count over selection days 2 and 3 (reads of this peptide / all reads for the bait, averaged over …
chain 1 AEQWAAEFIQIQGTSD [chain 1 Q11I]	0.00199 average fractional NGS count over selection days 2 and 3 (reads of this peptide / all reads for the bait, averaged over …
chain 1 AEQWAAEFIQAQGTSD [chain 1 Q11A]	0.00173 average fractional NGS count over selection days 2 and 3 (reads of this peptide / all reads for the bait, averaged over …
chain 1 AEQWAAEFIQKQGTSD [chain 1 Q11K]	0.000704 average fractional NGS count over selection days 2 and 3 (reads of this peptide / all reads for the bait, averaged over …
chain 1 AEVWAAEFIQQQGTSD [chain 1 Q3V]	0.000961 average fractional NGS count over selection days 2 and 3 (reads of this peptide / all reads for the bait, averaged over …
chain 1 AENWAAEFIQQQGTSD [chain 1 Q3N]	0.00292 average fractional NGS count over selection days 2 and 3 (reads of this peptide / all reads for the bait, averaged over …
chain 1 AEPWAAEFIQQQGTSD [chain 1 Q3P]	0.00138 average fractional NGS count over selection days 2 and 3 (reads of this peptide / all reads for the bait, averaged over …
chain 1 AETWAAEFIQQQGTSD [chain 1 Q3T]	0.00148 average fractional NGS count over selection days 2 and 3 (reads of this peptide / all reads for the bait, averaged over …
chain 1 AEHWAAEFIQQQGTSD [chain 1 Q3H]	0.00576 average fractional NGS count over selection days 2 and 3 (reads of this peptide / all reads for the bait, averaged over …
chain 1 AEQWAAEMIQQQGTSD [chain 1 F8M]	0.00109 average fractional NGS count over selection days 2 and 3 (reads of this peptide / all reads for the bait, averaged over …
chain 1 AEQWAAEYIQQQGTSD [chain 1 F8Y]	0.000429 average fractional NGS count over selection days 2 and 3 (reads of this peptide / all reads for the bait, averaged over …
chain 1 AEQWAAEFIGQQGTSD [chain 1 Q10G]	0.00258 average fractional NGS count over selection days 2 and 3 (reads of this peptide / all reads for the bait, averaged over …
chain 1 AEQWAAEFIPQQGTSD [chain 1 Q10P]	0.00113 average fractional NGS count over selection days 2 and 3 (reads of this peptide / all reads for the bait, averaged over …
chain 1 AEQWAAEFIRQQGTSD [chain 1 Q10R]	0.00109 average fractional NGS count over selection days 2 and 3 (reads of this peptide / all reads for the bait, averaged over …

Variants of: B2
Experiment: bait immobilised on MaxiSorp plates (10 µg), library pre-cleared on GST, 2 h binding at 4 °C, five washes; one round per day, days 1-4; value from days 2 and 3

Variant	screen value
chain 1 QFTEEDLHFVLMGVTP [chain 1 Y12M]	4.44e-05 average fractional NGS count over selection days 2 and 3 (reads of this peptide / all reads for the bait, averaged over …
chain 1 QFTEEDLHFVLEGVTP [chain 1 Y12E]	0.000104 average fractional NGS count over selection days 2 and 3 (reads of this peptide / all reads for the bait, averaged over …
chain 1 QFSEEDLHFVLYGVTP [chain 1 T3S]	0.000238 average fractional NGS count over selection days 2 and 3 (reads of this peptide / all reads for the bait, averaged over …
chain 1 QFTEEDRHFVLYGVTP [chain 1 L7R]	7.05e-05 average fractional NGS count over selection days 2 and 3 (reads of this peptide / all reads for the bait, averaged over …
chain 1 QFTEEALHFVLYGVTP [chain 1 D6A]	6.63e-05 average fractional NGS count over selection days 2 and 3 (reads of this peptide / all reads for the bait, averaged over …
chain 1 QFTEEGLHFVLYGVTP [chain 1 D6G]	5.78e-05 average fractional NGS count over selection days 2 and 3 (reads of this peptide / all reads for the bait, averaged over …
chain 1 QFTEEELHFVLYGVTP [chain 1 D6E]	0.0721 average fractional NGS count over selection days 2 and 3 (reads of this peptide / all reads for the bait, averaged over …
chain 1 QFTEEVLHFVLYGVTP [chain 1 D6V]	5.37e-05 average fractional NGS count over selection days 2 and 3 (reads of this peptide / all reads for the bait, averaged over …
chain 1 QFTEEDLHFVLYGVTS [chain 1 P16S]	0.145 average fractional NGS count over selection days 2 and 3 (reads of this peptide / all reads for the bait, averaged over …
chain 1 QFTEEDLHFVLYGVTY [chain 1 P16Y]	0.000111 average fractional NGS count over selection days 2 and 3 (reads of this peptide / all reads for the bait, averaged over …
chain 1 QFTEEDLHFVLYGVTK [chain 1 P16K]	9.04e-05 average fractional NGS count over selection days 2 and 3 (reads of this peptide / all reads for the bait, averaged over …
chain 1 QFTEEDLHFVLYGVTL [chain 1 P16L]	0.00707 average fractional NGS count over selection days 2 and 3 (reads of this peptide / all reads for the bait, averaged over …
